Legend:
Test in all cases: receptor-Fc IP
[1] = biological target: T1, VEGFR-1-Fc (UniProt P17948 27-338)
T1 construct: domain: first three Ig domains; expressed in Drosophila S2 cells, purified on Protein A sepharose; also called VEGFR-1-Fc fusion protein; not shown: Fc fragment from the Signal-pIgPlus vector
Outline: (§1)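 Binding of ligand from sample supernatant measured by pentahistidine-antibody immunoprecipitation. IP mix: PBS with 1.5% BSA, 0.06% Tween 20, 3 μg/ml heparin and 400 ng/ml fusion protein, added 1:2 to sample supernatant.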

[2] = biological target: T2, VEGFR-2-Fc (UniProt P35968 20-322)
T2 construct: domain: first 3 Ig domains; conditioned supernatant of 293T cells; also called VEGFR-2-Fc fusion protein; not shown: Fc fragment of the pIg vector
T2 sequence (P35968 20-322): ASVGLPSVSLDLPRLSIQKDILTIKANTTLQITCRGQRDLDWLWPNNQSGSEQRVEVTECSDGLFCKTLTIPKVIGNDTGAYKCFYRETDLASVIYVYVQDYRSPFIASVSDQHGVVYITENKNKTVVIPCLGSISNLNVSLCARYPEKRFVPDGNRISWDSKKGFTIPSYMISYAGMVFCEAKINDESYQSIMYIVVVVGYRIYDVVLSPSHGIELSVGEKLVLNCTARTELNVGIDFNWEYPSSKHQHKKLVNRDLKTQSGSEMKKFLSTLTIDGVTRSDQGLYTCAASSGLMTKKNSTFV
Outline: as §1

[3] = biological target: T3, VEGFR-3-Fc (UniProt P35916 25-328)
T3 construct: domain: first three Ig domains; conditioned supernatant of 293T cells; also called VEGFR-3-Fc fusion protein; not shown: Fc fragment of the pIg vector
T3 sequence (looked up): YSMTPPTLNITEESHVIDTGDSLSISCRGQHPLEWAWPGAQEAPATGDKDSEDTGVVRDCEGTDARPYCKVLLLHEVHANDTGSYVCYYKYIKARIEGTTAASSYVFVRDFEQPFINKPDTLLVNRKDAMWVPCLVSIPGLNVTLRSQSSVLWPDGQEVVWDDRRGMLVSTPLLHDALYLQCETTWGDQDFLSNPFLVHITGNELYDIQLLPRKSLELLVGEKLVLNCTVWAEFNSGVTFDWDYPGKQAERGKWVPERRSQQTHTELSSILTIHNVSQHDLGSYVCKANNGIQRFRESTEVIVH
Outline: as §1

Measured: binding result

T1 sequence (P17948 27-338): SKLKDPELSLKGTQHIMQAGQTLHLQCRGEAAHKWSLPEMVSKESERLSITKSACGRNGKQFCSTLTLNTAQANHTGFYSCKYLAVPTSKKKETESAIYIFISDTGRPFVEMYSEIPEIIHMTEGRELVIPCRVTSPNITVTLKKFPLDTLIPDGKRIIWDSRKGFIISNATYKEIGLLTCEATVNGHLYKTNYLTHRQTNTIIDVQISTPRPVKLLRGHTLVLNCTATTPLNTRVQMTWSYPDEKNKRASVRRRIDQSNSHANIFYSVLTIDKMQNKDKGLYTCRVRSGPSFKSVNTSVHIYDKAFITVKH

B1: 82-1 (ligand)
chain: AHYNTEILKFMDVYQRSYCHPIETLVDIFQEFGVATNTFFKPPCVSVYRCGGCCNDEGLECVPTEESNITMQIMRIKPHQGQHIGEMSFLQHNKCECRPKKD
no binding: all assays above

B2: 82-3 (ligand)
chain: AHYNTEILKFMDVYQRSYCHPIETLVDIFQEFGVATNTFFKPPCVSVYRCGGCCNSEGLQCVPTEESNITMQIMRIKPHQGQHIGEMSFLQHNKCECRPKKD
no binding: all assays above

B3: 74-16 (ligand)
chain: GQNHHEVVKSIDNEWRKTQCMPREVCIDVGKEFGVATNTFFKPSCVPLMRCGGCCNSEGLQCMNTSTSYLSKTLFEITVPLSQGPKPVTISFANHTSCRCMSKLD
no binding: all assays above

B4: 74-15 (ligand)
chain: GQNHHEVVKSIDNEWRKTQCMPREVCIDVGKEFGVATNTFFKPSCVPLMRCGGCCNSEGLQCVPTEESNITMQIMRITVPLSQGPKPVTISFANHTSCRCMSKLD
no binding: all assays above

B5: 74-4 (ligand)
chain: GQNHHEVVKSIDNEWRKTQCMPREVCIDVGKEFGVATNTFFKPSCVPLMRCGGCCNSEGLQCMNTSTSYLSKTLFEIKPHQGQHIGEMSFLQHNKCECRPKKD
no binding: all assays above

B6: 74-6 (ligand)
chain: GQNHHEVVKSIDNEWRKTQCMPREVCIDVGKEFGVATNTFFKPSCVPLMRCGGCCNDEGLECMNTSTSYLSKTLFEIKPHQGQHIGEMSFANHTSCRCMSKLD
no binding: all assays above

B7: 74-3 (ligand)
chain: GQNHHEVVKSIDNEWRKTQCMPREVCIDVGKEFGVATNTFFKPSCVPLMRCGGCCNSEGLQCVPTEESNITMQIMRIKPHQGQHIGEMSFLQHNKCECRPKKD
no binding: all assays above

Reference: patent publication US20080058263A1 (published 2008)
